# Laboratory results taken from patent US20230340151A1 (Pfizer, published 2023).
# T1: GUCY2C_ECD Peptide 50 (human)
# T1 peptide: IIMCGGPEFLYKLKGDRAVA
# T2: GUCY2C_ECD Peptide 68 (human)
# T2 peptide: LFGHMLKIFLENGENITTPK
# T3: GUCY2C_ECD Peptide 8 (human)
# T3 peptide: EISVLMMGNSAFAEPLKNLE
# T4: GUCY2C_ECD Peptide 45 (human)
# T4 peptide: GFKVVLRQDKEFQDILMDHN
# T5: GUCY2C_ECD Peptide 51 (human)
# T5 peptide: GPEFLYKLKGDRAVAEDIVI
# T6: GUCY2C_ECD Peptide 74 (human)
# T6 peptide: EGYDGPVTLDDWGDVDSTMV
# T7: GUCY2C_ECD Peptide 47 (human)
# T7 peptide: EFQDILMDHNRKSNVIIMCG
# T8: GUCY2C_ECD Peptide 18 (human)
# T8 peptide: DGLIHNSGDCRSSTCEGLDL
# T9: GUCY2C_ECD Peptide 61 (human)
# T9 peptide: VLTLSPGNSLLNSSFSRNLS
# T10: GUCY2C_ECD Peptide 66 (human)
# T10 peptide: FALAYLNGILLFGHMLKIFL
# T11: GUCY2C_ECD Peptide 24 (human)
# T11 peptide: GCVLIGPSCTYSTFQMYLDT
# T12: GUCY2C_ECD Peptide 57 (human)
# T12 peptide: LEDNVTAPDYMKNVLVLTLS
# T13: GUCY2C_ECD Peptide 32 (human)
# T13 peptide: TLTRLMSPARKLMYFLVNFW
# T14: GUCY2C_ECD Peptide 2 (human)
# T14 peptide: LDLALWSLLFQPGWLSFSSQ
# T15: GUCY2C_ECD Peptide 56 (human)
# T15 peptide: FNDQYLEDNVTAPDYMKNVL
# T16: GUCY2C_ECD Peptide 27 (human)
# T16 peptide: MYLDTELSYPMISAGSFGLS
# T17: GUCY2C_ECD Peptide 78 (human)
# T17 peptide: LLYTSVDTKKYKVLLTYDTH
# T18: GUCY2C_ECD Peptide 33 (human)
# T18 peptide: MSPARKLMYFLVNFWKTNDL
# T19: GUCY2C_ECD Peptide 86 (human)
# T19 peptide: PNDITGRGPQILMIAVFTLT
# T20: GUCY2C_ECD Peptide 55 (human)
# T20 peptide: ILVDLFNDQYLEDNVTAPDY
# T21: GUCY2C_ECD Peptide 72 (human)
# T21 peptide: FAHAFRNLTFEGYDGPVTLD
# T22: GUCY2C_ECD Peptide 22 (human)
# T22 peptide: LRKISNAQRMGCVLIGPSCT
# T23: GUCY2C_ECD Peptide 4 (human)
# T23 peptide: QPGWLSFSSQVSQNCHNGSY
# T24: GUCY2C_ECD Peptide 28 (human)
# T24 peptide: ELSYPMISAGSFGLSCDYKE
# T25: GUCY2C_ECD Peptide 88 (human)
# T25 peptide: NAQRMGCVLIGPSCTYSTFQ
# T26: GUCY2C_ECD Peptide 40 (human)
# T26 peptide: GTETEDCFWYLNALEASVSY
# T27: GUCY2C_ECD Peptide 70 (human)
# T27 peptide: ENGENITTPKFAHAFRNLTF
# T28: GUCY2C_ECD Peptide 89 (human)
# T28 peptide: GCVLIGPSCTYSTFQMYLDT
# T29: GUCY2C_ECD Peptide 64 (human)
# T29 peptide: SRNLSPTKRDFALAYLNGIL
# T30: GUCY2C_ECD Peptide 39 (human)
# T30 peptide: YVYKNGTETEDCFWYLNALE
# T31: GUCY2C_ECD Peptide 87 (human)
# T31 peptide: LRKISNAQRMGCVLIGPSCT
# T32: Cynomolgus GUCY2C-ECD Cleaved (cynomolgus, UniProt P25092 24-430 (human entry))
# T32 construct: also called CyGUCY2C
# T32 chain: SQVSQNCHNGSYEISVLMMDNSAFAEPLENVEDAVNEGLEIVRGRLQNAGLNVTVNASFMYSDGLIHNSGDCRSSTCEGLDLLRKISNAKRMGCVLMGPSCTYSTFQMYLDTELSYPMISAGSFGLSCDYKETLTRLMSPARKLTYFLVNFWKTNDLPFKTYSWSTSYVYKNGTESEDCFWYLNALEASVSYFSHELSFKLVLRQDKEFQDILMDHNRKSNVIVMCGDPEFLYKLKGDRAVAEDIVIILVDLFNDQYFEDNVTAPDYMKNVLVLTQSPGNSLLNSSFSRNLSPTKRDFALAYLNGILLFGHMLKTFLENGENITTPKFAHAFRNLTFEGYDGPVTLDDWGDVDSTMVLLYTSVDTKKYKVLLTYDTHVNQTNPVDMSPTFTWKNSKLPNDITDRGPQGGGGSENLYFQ
# What was measured:
# GUCY2C_ECD Peptide 50 = molecular target: T1, GUCY2C_ECD Peptide 50; test: peptide DELFIA ELISA;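 note: epitope mapping using overlapping 20-mer GUCY2C peptides covering residues 1-440, extracellular into transmembrane domain, coated at 20 µg/ml as target antigen and probed with antibodies or GUCY2C-CD3 bispecifics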
# Protocol: (§1) Arrays were reconstituted with acetonitrile to 100 μg/ml and were then further diluted to 20 μg/ml with sodium carbonate/bicarbonate buffer. Purified antibodies or GUCY2c-CD3 bispecifics were then tested by Delfia ELISA for binding to the different peptides using Delfia ELISA methods previously discussed, with diluted peptides used as the target antigen.
# GUCY2C_ECD Peptide 68 = molecular target: T2, GUCY2C_ECD Peptide 68; test: peptide DELFIA ELISA;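 note: epitope mapping using overlapping 20-mer GUCY2C peptides covering residues 1-440, extracellular into transmembrane domain, coated at 20 µg/ml as target antigen and probed with antibodies or GUCY2C-CD3 bispecifics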
# Protocol: as §1
# GUCY2C_ECD Peptide 8 = molecular target: T3, GUCY2C_ECD Peptide 8; test: peptide DELFIA ELISA;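 note: epitope mapping using overlapping 20-mer GUCY2C peptides covering residues 1-440, extracellular into transmembrane domain, coated at 20 µg/ml as target antigen and probed with antibodies or GUCY2C-CD3 bispecifics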
# Protocol: as §1
# GUCY2C_ECD Peptide 45 = molecular target: T4, GUCY2C_ECD Peptide 45; test: peptide DELFIA ELISA;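 note: epitope mapping using overlapping 20-mer GUCY2C peptides covering residues 1-440, extracellular into transmembrane domain, coated at 20 µg/ml as target antigen and probed with antibodies or GUCY2C-CD3 bispecifics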
# Protocol: as §1
# GUCY2C_ECD Peptide 51 = molecular target: T5, GUCY2C_ECD Peptide 51; test: peptide DELFIA ELISA
# Protocol: as §1
# GUCY2C_ECD Peptide 74 = molecular target: T6, GUCY2C_ECD Peptide 74; test: peptide DELFIA ELISA
# Protocol: as §1
# GUCY2C_ECD Peptide 47 = molecular target: T7, GUCY2C_ECD Peptide 47; test: peptide DELFIA ELISA
# Protocol: as §1
# GUCY2C_ECD Peptide 18 = molecular target: T8, GUCY2C_ECD Peptide 18; test: peptide DELFIA ELISA
# Protocol: as §1
# GUCY2C_ECD Peptide 61 = molecular target: T9, GUCY2C_ECD Peptide 61; test: peptide DELFIA ELISA
# Protocol: as §1
# GUCY2C_ECD Peptide 66 = molecular target: T10, GUCY2C_ECD Peptide 66; test: peptide DELFIA ELISA
# Protocol: as §1
# GUCY2C_ECD Peptide 24 = molecular target: T11, GUCY2C_ECD Peptide 24; test: peptide DELFIA ELISA
# Protocol: as §1
# GUCY2C_ECD Peptide 57 = molecular target: T12, GUCY2C_ECD Peptide 57; test: peptide DELFIA ELISA
# Protocol: as §1
# GUCY2C_ECD Peptide 32 = molecular target: T13, GUCY2C_ECD Peptide 32; test: peptide DELFIA ELISA
# Protocol: as §1
# GUCY2C_ECD Peptide 2 = molecular target: T14, GUCY2C_ECD Peptide 2; test: peptide DELFIA ELISA
# Protocol: as §1
# GUCY2C_ECD Peptide 56 = molecular target: T15, GUCY2C_ECD Peptide 56; test: peptide DELFIA ELISA
# Protocol: as §1
# GUCY2C_ECD Peptide 27 = molecular target: T16, GUCY2C_ECD Peptide 27; test: peptide DELFIA ELISA
# Protocol: as §1
# GUCY2C_ECD Peptide 78 = molecular target: T17, GUCY2C_ECD Peptide 78; test: peptide DELFIA ELISA
# Protocol: as §1
# GUCY2C_ECD Peptide 33 = molecular target: T18, GUCY2C_ECD Peptide 33; test: peptide DELFIA ELISA
# Protocol: as §1
# GUCY2C_ECD Peptide 86 = molecular target: T19, GUCY2C_ECD Peptide 86; test: peptide DELFIA ELISA
# Protocol: as §1
# GUCY2C_ECD Peptide 55 = molecular target: T20, GUCY2C_ECD Peptide 55; test: peptide DELFIA ELISA
# Protocol: as §1
# GUCY2C_ECD Peptide 72 = molecular target: T21, GUCY2C_ECD Peptide 72; test: peptide DELFIA ELISA
# Protocol: as §1
# GUCY2C_ECD Peptide 22 = molecular target: T22, GUCY2C_ECD Peptide 22; test: peptide DELFIA ELISA
# Protocol: as §1
# GUCY2C_ECD Peptide 4 = molecular target: T23, GUCY2C_ECD Peptide 4; test: peptide DELFIA ELISA
# Protocol: as §1
# GUCY2C_ECD Peptide 28 = molecular target: T24, GUCY2C_ECD Peptide 28; test: peptide DELFIA ELISA
# Protocol: as §1
# GUCY2C_ECD Peptide 88 = molecular target: T25, GUCY2C_ECD Peptide 88; test: peptide DELFIA ELISA
# Protocol: as §1
# GUCY2C_ECD Peptide 40 = molecular target: T26, GUCY2C_ECD Peptide 40; test: peptide DELFIA ELISA
# Protocol: as §1
# GUCY2C_ECD Peptide 70 = molecular target: T27, GUCY2C_ECD Peptide 70; test: peptide DELFIA ELISA
# Protocol: as §1
# GUCY2C_ECD Peptide 89 = molecular target: T28, GUCY2C_ECD Peptide 89; test: peptide DELFIA ELISA
# Protocol: as §1
# GUCY2C_ECD Peptide 64 = molecular target: T29, GUCY2C_ECD Peptide 64; test: peptide DELFIA ELISA
# Protocol: as §1
# GUCY2C_ECD Peptide 39 = molecular target: T30, GUCY2C_ECD Peptide 39; test: peptide DELFIA ELISA
# Protocol: as §1
# GUCY2C_ECD Peptide 87 = molecular target: T31, GUCY2C_ECD Peptide 87; test: peptide DELFIA ELISA
# Protocol: as §1
# [1] = molecular target: T32, Cynomolgus GUCY2C-ECD Cleaved; test: direct DELFIA, RT
binder,measurement,setting,value
"GUCY2C-1608 (bispecific antibody, also called GUCY2c CD3 bispecific) chain 1: DIQLTQSPSSLSASVGDRVTITCRASESVDYYGSSLLQWYQQKPGKAPKLLIYAASKLASGVPSRFSGSGSGTDFTLTISSLQPEDFATYYCQQTRKAYTFGQGTKLEIKGGGSGGGGEVQLVESGGGLVQPGGSLRLSCAASGFTFSDYYMTWVRQAPGKGLEWVAFIRNQARGYTSDHNPSVKGRFTISRDNAKNSLYLQMNSLRAEDTAVYYCARDRPSYYVLDYWGQGTTVTVSSGCPPCPAPEAAGAPSVFLFPPKPKDTLMISRTPEVTCVVVDVSHEDPEVKFNWYVDGVEVHNAKTKPREEQYNSTYRVVSVLTVLHQDWLNGKEYKCKVSNKALPAPIEKTISKAKGQPREPQVCTLPPSREEMTKNQVSLWCLVKGFYPSDIAVEWESNGQPENNYKTTPPVLDSDGSFFLYSKLTVDKSRWQQGNVFSCSVMHEALHNHYTQKSLSLSPG chain 2: DIQMTQSPSSLSASVGDRVTITCTSSQSLFNVRSQKNYLAWYQQKPGKAPKLLIYWASTRESGVPSRFSGSGSGTDFTLTISSLQPEDFATYYCKQSYDLFTFGGGTKVEIKGGGGSGGGGEVQLVESGGGLVQPGGSLRLSCAASGFTFSSYWMHWVRQAPGKGLEWIGEIKPSNELTNVHEKFKDRFTISVDKAKNSAYLQMNSLRAEDTAVYYCTRTITTTEGYWFFDVWGQGTLVTVSSGCPPCPAPEAAGAPSVFLFPPKPKDTLMISRTPEVTCVVVDVSHEDPEVKFNWYVDGVEVHNAKTKPREEQYNSTYRVVSVLTVLHQDWLNGKEYKCKVSNKALPAPIEKTISKAKGQPREPQVYTLPPCREEMTKNQVSLSCAVKGFYPSDIAVEWESNGQPENNYKTTPPVLDSDGSFFLVSKLTVDKSRWQQGNVFSCSVMHEALHNHYTQKSLSLSPG",DELFIA TRF,GUCY2C_ECD Peptide 50,161
same,DELFIA TRF,GUCY2C_ECD Peptide 68,73.5
same,DELFIA TRF,GUCY2C_ECD Peptide 8,148
same,DELFIA TRF,GUCY2C_ECD Peptide 45,108
same,DELFIA TRF,GUCY2C_ECD Peptide 51,96.8
same,DELFIA TRF,GUCY2C_ECD Peptide 74,100
same,DELFIA TRF,GUCY2C_ECD Peptide 47,104
same,DELFIA TRF,GUCY2C_ECD Peptide 18,126
same,DELFIA TRF,GUCY2C_ECD Peptide 61,126
same,DELFIA TRF,GUCY2C_ECD Peptide 66,114
same,DELFIA TRF,GUCY2C_ECD Peptide 24,119
same,DELFIA TRF,GUCY2C_ECD Peptide 57,99.8
same,DELFIA TRF,GUCY2C_ECD Peptide 32,83.2
same,DELFIA TRF,GUCY2C_ECD Peptide 2,106
same,DELFIA TRF,GUCY2C_ECD Peptide 56,81
same,DELFIA TRF,GUCY2C_ECD Peptide 27,105
same,DELFIA TRF,GUCY2C_ECD Peptide 78,97.8
same,DELFIA TRF,GUCY2C_ECD Peptide 33,87.5
same,DELFIA TRF,GUCY2C_ECD Peptide 86,110
same,DELFIA TRF,GUCY2C_ECD Peptide 55,100
same,DELFIA TRF,GUCY2C_ECD Peptide 72,116
same,DELFIA TRF,GUCY2C_ECD Peptide 22,93.5
same,DELFIA TRF,GUCY2C_ECD Peptide 4,125
same,DELFIA TRF,GUCY2C_ECD Peptide 28,96.8
same,DELFIA TRF,GUCY2C_ECD Peptide 88,120
same,DELFIA TRF,GUCY2C_ECD Peptide 40,85.2
same,DELFIA TRF,GUCY2C_ECD Peptide 70,91.8
same,DELFIA TRF,GUCY2C_ECD Peptide 89,115
same,DELFIA TRF,GUCY2C_ECD Peptide 64,116
same,DELFIA TRF,GUCY2C_ECD Peptide 39,86.5
same,DELFIA TRF,GUCY2C_ECD Peptide 87,102
same,EC50,[1],9.84 nM
